Article PMC10421740, “A universal deep-learning model for zinc finger design enables transcription factor reprogramming”

Experiments:
[1] = molecular target: ZFN pair Astr 12ABC + Astr 12FED (synthetic construct, UniProt P14870;P14870 384-579;384-579); experiment: Zn; U2OS eGFP disruption, 3 days after nucleofection; conditions: tags: N-terminal 3xFLAG and SV40 NLS (kept in the assay, left out here); copies: 1;1
[2] = molecular target: ZFN pair Astr 18ABC + Astr 18FED (synthetic construct, UniProt P14870;P14870 384-579;384-579); experiment: as above; conditions: tags: N-terminal 3xFLAG and SV40 NLS (kept in the assay, left out here); copies: 1;1
[3] = molecular target: ZFN pair Astr 24ABC + Astr 24FED (synthetic construct, UniProt P14870;P14870 384-579;384-579); experiment: as above; conditions: tags: N-terminal 3xFLAG and SV40 NLS (kept in the assay, left out here); copies: 1;1
[4] = molecular target: ZFN pair Astr 28ABC + Astr 28FED (synthetic construct, UniProt P14870;P14870 384-579;384-579); experiment: as above; conditions: tags: N-terminal 3xFLAG and SV40 NLS (kept in the assay, left out here); copies: 1;1
[5] = molecular target: ZFN pair Astr 23ABC + Astr 23FED (synthetic construct, UniProt P14870;P14870 384-579;384-579); experiment: as above; conditions: tags: N-terminal 3xFLAG and SV40 NLS (kept in the assay, left out here); copies: 1;1
[6] = molecular target: ZFN pair Astr 25ABC + Astr 25FED (synthetic construct, UniProt P14870;P14870 384-579;384-579); experiment: as above; conditions: tags: N-terminal 3xFLAG and SV40 NLS (kept in the assay, left out here); copies: 1;1
[7] = molecular target: ZFN pair Astr 31ABC + Astr 31FED (synthetic construct, UniProt P14870;P14870 384-579;384-579); experiment: as above; conditions: tags: N-terminal 3xFLAG and SV40 NLS (kept in the assay, left out here); copies: 1;1
[8] = molecular target: ZFN pair Astr 27ABC + Astr 27FED (synthetic construct, UniProt P14870;P14870 384-579;384-579); experiment: as above; conditions: tags: N-terminal 3xFLAG and SV40 NLS (kept in the assay, left out here); copies: 1;1
[9] = molecular target: ZFN pair Astr 2ABC + Astr 2FED (synthetic construct, UniProt P14870;P14870 384-579;384-579); experiment: as above; conditions: tags: N-terminal 3xFLAG and SV40 NLS (kept in the assay, left out here); copies: 1;1
[10] = molecular target: ZFN pair Astr 30ABC + Astr 30FED (synthetic construct, UniProt P14870;P14870 384-579;384-579); experiment: as above; conditions: tags: N-terminal 3xFLAG and SV40 NLS (kept in the assay, left out here); copies: 1;1
[11] = molecular target: ZFN pair Astr 1ABC + Astr 1FED (synthetic construct, UniProt P14870;P14870 384-579;384-579); experiment: as above; conditions: tags: N-terminal 3xFLAG and SV40 NLS (kept in the assay, left out here); copies: 1;1
[12] = molecular target: ZFN pair Astr 29ABC + Astr 29FED (synthetic construct, UniProt P14870;P14870 384-579;384-579); experiment: as above; conditions: tags: N-terminal 3xFLAG and SV40 NLS (kept in the assay, left out here); copies: 1;1
[13] = molecular target: ZFN pair Astr 10ABC + Astr 10FED (synthetic construct, UniProt P14870;P14870 384-579;384-579); experiment: as above; conditions: tags: N-terminal 3xFLAG and SV40 NLS (kept in the assay, left out here); copies: 1;1
[14] = molecular target: ZFN pair Astr 26ABC + Astr 26FED (synthetic construct, UniProt P14870;P14870 384-579;384-579); experiment: as above; conditions: tags: N-terminal 3xFLAG and SV40 NLS (kept in the assay, left out here); copies: 1;1
[15] = molecular target: ZFN pair Astr 20ABC + Astr 20FED (synthetic construct, UniProt P14870;P14870 384-579;384-579); experiment: as above; conditions: tags: N-terminal 3xFLAG and SV40 NLS (kept in the assay, left out here); copies: 1;1
[16] = molecular target: ZIM3 reprogrammed with array Tet1 For (synthetic construct, UniProt Q96PE6 1-166); experiment: Zn; HEK293T, 7x tetO CMV eGFP reporter
[17] = molecular target: ZIM3 reprogrammed with array Tet2 For (synthetic construct, UniProt Q96PE6 1-166); experiment: Zn; HEK293T, 7x tetO CMV eGFP reporter
[18] = molecular target: T1, KLF6 reprogrammed with array Tet1 For (synthetic construct, UniProt Q99612 1-199); experiment: Zn; HEK293T, 7x tetO minimal CMV GFP reporter
T1 chain: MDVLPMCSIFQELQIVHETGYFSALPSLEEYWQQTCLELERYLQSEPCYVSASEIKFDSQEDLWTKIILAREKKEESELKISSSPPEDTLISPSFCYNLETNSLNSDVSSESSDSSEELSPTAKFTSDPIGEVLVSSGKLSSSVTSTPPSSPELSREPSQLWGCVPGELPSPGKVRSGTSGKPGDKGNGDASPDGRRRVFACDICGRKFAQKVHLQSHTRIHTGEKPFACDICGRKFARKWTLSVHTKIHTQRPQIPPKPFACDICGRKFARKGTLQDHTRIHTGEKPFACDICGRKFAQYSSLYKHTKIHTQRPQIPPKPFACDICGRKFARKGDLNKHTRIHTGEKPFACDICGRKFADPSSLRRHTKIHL

[19] = molecular target: T2, KLF6 reprogrammed with array Tet2 For (synthetic construct, UniProt Q99612 1-199); experiment: Zn; HEK293T, 7x tetO minimal CMV GFP reporter
T2 chain: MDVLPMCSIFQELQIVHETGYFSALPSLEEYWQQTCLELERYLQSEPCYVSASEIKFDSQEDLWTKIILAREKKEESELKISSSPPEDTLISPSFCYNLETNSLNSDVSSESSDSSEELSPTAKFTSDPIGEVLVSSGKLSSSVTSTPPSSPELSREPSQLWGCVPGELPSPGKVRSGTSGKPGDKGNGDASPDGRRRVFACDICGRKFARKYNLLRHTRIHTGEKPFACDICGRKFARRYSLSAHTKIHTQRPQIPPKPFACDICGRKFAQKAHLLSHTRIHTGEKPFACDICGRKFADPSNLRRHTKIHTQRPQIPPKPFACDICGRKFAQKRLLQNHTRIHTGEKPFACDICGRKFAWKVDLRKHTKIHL

[20] = molecular target: ZFN pair Astr 22ABC + Astr 22FED (synthetic construct, UniProt P14870;P14870 384-579;384-579); experiment: Zn; U2OS eGFP disruption, 3 days after nucleofection; conditions: tags: N-terminal 3xFLAG and SV40 NLS (kept in the assay, left out here); copies: 1;1
Chain of ZFN pair Astr 22ABC + Astr 22FED (P14870 other isoform, or with tags, fused parts or gaps, chain 1 of 2): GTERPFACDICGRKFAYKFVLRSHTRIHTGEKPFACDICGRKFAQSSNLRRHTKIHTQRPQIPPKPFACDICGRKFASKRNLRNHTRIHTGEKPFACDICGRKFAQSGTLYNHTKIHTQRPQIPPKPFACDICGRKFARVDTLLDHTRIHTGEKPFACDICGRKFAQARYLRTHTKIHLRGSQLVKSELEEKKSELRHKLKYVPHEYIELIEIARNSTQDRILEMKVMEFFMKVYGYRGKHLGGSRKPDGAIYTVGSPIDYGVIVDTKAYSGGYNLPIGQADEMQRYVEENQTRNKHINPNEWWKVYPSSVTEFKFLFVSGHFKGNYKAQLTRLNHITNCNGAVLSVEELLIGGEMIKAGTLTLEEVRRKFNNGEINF
Chain of ZFN pair Astr 22ABC + Astr 22FED (P14870 other isoform, or with tags, fused parts or gaps, chain 2 of 2): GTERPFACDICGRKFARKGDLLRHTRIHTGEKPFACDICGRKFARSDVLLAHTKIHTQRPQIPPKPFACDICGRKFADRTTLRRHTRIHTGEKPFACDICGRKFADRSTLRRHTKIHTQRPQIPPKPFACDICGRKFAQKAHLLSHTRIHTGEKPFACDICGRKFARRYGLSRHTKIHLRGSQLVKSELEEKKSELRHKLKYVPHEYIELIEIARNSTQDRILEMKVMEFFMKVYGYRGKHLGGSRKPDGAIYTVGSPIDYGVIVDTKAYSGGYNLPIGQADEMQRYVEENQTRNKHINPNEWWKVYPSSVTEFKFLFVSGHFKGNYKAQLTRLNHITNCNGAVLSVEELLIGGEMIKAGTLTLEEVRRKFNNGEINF

Chain of ZFN pair Astr 30ABC + Astr 30FED (P14870 other isoform, or with tags, fused parts or gaps, chain 1 of 2): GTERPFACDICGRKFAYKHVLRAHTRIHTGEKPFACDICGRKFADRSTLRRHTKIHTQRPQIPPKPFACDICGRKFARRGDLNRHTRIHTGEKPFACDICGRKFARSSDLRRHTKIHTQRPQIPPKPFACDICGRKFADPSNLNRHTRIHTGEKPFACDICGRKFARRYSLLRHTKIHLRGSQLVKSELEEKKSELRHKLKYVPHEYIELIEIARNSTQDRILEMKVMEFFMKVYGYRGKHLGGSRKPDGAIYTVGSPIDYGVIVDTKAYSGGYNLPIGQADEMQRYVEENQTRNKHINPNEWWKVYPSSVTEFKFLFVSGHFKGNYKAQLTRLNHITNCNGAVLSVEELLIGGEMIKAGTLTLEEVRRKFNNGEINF
Chain of ZFN pair Astr 30ABC + Astr 30FED (P14870 other isoform, or with tags, fused parts or gaps, chain 2 of 2): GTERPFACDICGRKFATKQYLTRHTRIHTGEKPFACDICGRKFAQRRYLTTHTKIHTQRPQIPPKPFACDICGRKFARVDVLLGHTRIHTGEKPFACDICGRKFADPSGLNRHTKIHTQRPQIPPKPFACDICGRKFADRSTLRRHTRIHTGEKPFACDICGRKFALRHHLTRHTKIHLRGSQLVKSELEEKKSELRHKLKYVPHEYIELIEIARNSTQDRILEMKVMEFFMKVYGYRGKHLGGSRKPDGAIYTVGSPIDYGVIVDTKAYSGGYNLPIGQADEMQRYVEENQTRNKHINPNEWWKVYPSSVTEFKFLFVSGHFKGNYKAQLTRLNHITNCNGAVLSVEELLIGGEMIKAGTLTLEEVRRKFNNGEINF
Chain of ZFN pair Astr 20ABC + Astr 20FED (P14870 other isoform, or with tags, fused parts or gaps, chain 1 of 2): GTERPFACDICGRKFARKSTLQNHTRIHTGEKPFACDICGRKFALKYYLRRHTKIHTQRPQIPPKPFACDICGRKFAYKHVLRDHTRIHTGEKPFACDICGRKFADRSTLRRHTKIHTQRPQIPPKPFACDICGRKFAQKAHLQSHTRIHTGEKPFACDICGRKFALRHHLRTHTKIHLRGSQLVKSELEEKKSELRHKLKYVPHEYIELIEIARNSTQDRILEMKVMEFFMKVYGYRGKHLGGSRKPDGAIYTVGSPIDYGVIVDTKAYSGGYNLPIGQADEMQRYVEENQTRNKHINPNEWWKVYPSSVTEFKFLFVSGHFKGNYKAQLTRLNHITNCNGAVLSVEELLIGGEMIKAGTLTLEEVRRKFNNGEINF
Chain of ZFN pair Astr 20ABC + Astr 20FED (P14870 other isoform, or with tags, fused parts or gaps, chain 2 of 2): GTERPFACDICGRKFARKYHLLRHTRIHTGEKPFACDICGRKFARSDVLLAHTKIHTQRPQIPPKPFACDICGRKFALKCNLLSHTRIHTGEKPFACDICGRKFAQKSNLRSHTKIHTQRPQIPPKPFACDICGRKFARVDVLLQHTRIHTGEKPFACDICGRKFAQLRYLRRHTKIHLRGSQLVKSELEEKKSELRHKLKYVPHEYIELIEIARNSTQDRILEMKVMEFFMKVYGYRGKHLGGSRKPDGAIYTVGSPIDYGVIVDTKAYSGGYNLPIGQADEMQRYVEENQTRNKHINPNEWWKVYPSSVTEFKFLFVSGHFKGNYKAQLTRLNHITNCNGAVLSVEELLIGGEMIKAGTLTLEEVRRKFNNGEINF
Chain of ZFN pair Astr 24ABC + Astr 24FED (P14870 other isoform, or with tags, fused parts or gaps, chain 1 of 2): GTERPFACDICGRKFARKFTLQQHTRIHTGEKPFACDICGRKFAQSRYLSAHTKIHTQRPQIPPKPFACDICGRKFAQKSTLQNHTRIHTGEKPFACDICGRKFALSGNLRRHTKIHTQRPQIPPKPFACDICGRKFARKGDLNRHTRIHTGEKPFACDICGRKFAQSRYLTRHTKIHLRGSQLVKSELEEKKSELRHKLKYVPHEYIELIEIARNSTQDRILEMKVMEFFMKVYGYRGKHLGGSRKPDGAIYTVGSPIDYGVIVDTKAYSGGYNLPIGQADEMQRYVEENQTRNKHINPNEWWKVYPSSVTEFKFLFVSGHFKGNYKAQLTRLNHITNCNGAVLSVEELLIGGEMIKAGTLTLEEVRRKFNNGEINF
Chain of ZFN pair Astr 24ABC + Astr 24FED (P14870 other isoform, or with tags, fused parts or gaps, chain 2 of 2): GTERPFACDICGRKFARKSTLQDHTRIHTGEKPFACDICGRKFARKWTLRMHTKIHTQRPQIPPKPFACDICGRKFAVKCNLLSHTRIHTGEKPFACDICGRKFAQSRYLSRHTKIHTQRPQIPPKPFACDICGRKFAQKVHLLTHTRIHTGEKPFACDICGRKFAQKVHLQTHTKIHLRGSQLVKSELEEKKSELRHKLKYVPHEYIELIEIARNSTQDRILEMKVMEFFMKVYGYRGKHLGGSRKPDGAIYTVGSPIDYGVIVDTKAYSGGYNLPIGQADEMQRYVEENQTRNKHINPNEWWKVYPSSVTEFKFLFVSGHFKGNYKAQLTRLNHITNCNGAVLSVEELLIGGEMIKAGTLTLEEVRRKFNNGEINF
Chain of ZFN pair Astr 26ABC + Astr 26FED (P14870 other isoform, or with tags, fused parts or gaps, chain 1 of 2): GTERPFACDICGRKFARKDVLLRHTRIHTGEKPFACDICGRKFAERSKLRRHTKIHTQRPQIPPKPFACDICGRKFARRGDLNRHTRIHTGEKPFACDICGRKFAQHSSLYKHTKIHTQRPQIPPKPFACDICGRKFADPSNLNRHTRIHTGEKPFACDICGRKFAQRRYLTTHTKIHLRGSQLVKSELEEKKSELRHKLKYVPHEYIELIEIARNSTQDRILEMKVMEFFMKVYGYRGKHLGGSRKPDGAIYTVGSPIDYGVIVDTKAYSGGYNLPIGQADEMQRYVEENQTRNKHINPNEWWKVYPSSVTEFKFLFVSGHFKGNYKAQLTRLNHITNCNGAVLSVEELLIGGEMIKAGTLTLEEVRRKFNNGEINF
Chain of ZFN pair Astr 26ABC + Astr 26FED (P14870 other isoform, or with tags, fused parts or gaps, chain 2 of 2): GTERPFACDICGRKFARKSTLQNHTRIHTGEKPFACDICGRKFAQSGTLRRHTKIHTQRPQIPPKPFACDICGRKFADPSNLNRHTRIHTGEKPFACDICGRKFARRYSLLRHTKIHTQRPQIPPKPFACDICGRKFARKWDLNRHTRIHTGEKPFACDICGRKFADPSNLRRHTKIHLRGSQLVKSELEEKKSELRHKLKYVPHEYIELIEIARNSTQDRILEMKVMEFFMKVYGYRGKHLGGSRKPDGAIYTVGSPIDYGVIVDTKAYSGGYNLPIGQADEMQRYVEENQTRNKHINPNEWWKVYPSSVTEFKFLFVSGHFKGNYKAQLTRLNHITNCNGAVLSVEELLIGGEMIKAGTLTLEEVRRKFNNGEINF
Chain of ZFN pair Astr 1ABC + Astr 1FED (P14870 other isoform, or with tags, fused parts or gaps, chain 1 of 2): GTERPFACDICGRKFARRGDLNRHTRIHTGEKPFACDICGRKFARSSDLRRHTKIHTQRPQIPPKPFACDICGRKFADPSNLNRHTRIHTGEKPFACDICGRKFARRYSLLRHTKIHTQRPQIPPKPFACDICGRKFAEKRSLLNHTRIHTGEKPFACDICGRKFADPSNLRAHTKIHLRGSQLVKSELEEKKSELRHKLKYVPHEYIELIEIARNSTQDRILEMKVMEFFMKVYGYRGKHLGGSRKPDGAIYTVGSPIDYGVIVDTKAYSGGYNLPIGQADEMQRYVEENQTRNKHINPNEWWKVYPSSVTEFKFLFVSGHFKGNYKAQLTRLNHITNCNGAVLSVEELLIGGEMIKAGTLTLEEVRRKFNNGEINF
Chain of ZFN pair Astr 1ABC + Astr 1FED (P14870 other isoform, or with tags, fused parts or gaps, chain 2 of 2): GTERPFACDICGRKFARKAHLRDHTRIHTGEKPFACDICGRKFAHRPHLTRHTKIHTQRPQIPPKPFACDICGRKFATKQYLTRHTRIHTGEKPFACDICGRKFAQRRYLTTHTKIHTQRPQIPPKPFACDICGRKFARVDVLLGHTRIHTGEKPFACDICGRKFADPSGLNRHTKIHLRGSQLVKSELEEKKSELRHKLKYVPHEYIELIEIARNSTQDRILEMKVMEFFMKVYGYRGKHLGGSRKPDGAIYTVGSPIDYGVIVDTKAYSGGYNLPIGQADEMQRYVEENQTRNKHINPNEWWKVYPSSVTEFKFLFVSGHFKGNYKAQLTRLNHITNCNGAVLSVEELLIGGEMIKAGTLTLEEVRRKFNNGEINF
Chain of ZIM3 reprogrammed with array Tet2 For (Q96PE6 other isoform, or with tags, fused parts or gaps): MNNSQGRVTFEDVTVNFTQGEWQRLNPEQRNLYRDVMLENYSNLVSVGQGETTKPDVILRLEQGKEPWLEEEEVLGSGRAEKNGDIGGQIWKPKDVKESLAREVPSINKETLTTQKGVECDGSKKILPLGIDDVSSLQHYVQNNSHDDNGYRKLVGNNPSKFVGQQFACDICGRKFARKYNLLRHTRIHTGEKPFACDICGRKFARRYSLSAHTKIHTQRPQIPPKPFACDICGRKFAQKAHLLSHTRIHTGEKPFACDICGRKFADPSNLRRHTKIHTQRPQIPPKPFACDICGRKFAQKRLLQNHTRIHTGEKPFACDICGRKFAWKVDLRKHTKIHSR

B1: eGFP site 12 (12 fingers) (dsDNA)
DNA 1: TGACCCTGAAGTTCATCTGCACCACCGGCAAGCTGCCCGTGCCCTGGC
DNA 2: GCCAGGGCACGGGCAGCTTGCCGGTGGTGCAGATGAACTTCAGGGTCA
Which binding signal [1] does the source give for B1 here?
The binding signal was ~43 % GFP-negative cells (higher = more activity).

B2: eGFP site 18 (12 fingers) (dsDNA)
DNA 1: ACATGAAGCAGCACGACTTCTTCAAGTCCGCCATGCCCGAAGGCTACG
DNA 2: CGTAGCCTTCGGGCATGGCGGACTTGAAGAAGTCGTGCTGCTTCATGT
How did the binding signal [2] turn out when B2 was run?
Its binding signal is ~71 % GFP-negative cells (higher = more activity).

B3: eGFP site 24 (12 fingers) (dsDNA)
DNA 1: ACAACGTCTATATCATGGCCGACAAGCAGAAGAACGGCATCAAGGTGA
DNA 2: TCACCTTGATGCCGTTCTTCTGCTTGTCGGCCATGATATAGACGTTGT
For B3, which binding signal [3] is on record?
The binding signal was ~52 % GFP-negative cells (higher = more activity).

B4: eGFP site 28 (12 fingers) (dsDNA)
DNA 1: TCCAGGAGCGCACCATCTTCTTCAAGGACGACGGCAACTACAAGACCC
DNA 2: GGGTCTTGTAGTTGCCGTCGTCCTTGAAGAAGATGGTGCGCTCCTGGA
With B4 as the binder, how does the binding signal [4] read?
Its binding signal is ~32 % GFP-negative cells (higher = more activity).

B5: eGFP site 23 (12 fingers) (dsDNA)
DNA 1: GGCATCGACTTCAAGGAGGACGGCAACATCCTGGGGCACAAGCTGGAG
DNA 2: CTCCAGCTTGTGCCCCAGGATGTTGCCGTCCTCCTTGAAGTCGATGCC
B5 was tested. Which binding signal [5] did it give?
Its binding signal is ~35 % GFP-negative cells (higher = more activity).

B6: eGFP site 25 (12 fingers) (dsDNA)
DNA 1: GCGAGGGCGAGGGCGATGCCACCTACGGCAAGCTGACCCTGAAGTTCA
DNA 2: TGAACTTCAGGGTCAGCTTGCCGTAGGTGGCATCGCCCTCGCCCTCGC
How did the binding signal [6] turn out when B6 was run?
The binding signal was ~39 % GFP-negative cells (higher = more activity).

B7: eGFP site 31 (12 fingers) (dsDNA)
DNA 1: GGCAAGCTGACCCTGAAGTTCATCTGCACCACCGGCAAGCTGCCCGTG
DNA 2: CACGGGCAGCTTGCCGGTGGTGCAGATGAACTTCAGGGTCAGCTTGCC
Which binding signal [7] does the source give for B7 here?
Its binding signal is ~72 % GFP-negative cells (higher = more activity).

B8: eGFP site 27 (12 fingers) (dsDNA)
DNA 1: TCCTGGGGCACAAGCTGGAGTACAACTACAACAGCCACAACGTCTATA
DNA 2: TATAGACGTTGTGGCTGTTGTAGTTGTACTCCAGCTTGTGCCCCAGGA
Which binding signal [8] does the source give for B8 here?
Its binding signal is ~46 % GFP-negative cells (higher = more activity).

B9: eGFP site 2 (12 fingers) (dsDNA)
DNA 1: AGTTCAGCGTGTCCGGCGAGGGCGAGGGCGATGCCACCTACGGCAAGC
DNA 2: GCTTGCCGTAGGTGGCATCGCCCTCGCCCTCGCCGGACACGCTGAACT
For B9, which binding signal [9] is on record?
Its binding signal is ~90 % GFP-negative cells (higher = more activity).

B10: eGFP site 30 (12 fingers) (dsDNA)
DNA 1: CAAGGGCGAGGAGCTGTTCACCGGGGTGGTGCCCATCCTGGTCGAGCT
DNA 2: AGCTCGACCAGGATGGGCACCACCCCGGTGAACAGCTCCTCGCCCTTG
With B10 as the binder, how does the binding signal [10] read?
Its binding signal is ~14 % GFP-negative cells (higher = more activity).

B11: eGFP site 1 (12 fingers) (dsDNA)
DNA 1: GAGGAGCTGTTCACCGGGGTGGTGCCCATCCTGGTCGAGCTGGACGGC
DNA 2: GCCGTCCAGCTCGACCAGGATGGGCACCACCCCGGTGAACAGCTCCTC
How did the binding signal [11] turn out when B11 was run?
The binding signal was ~85 % GFP-negative cells (higher = more activity).

B12: eGFP site 29 (12 fingers) (dsDNA)
DNA 1: CGGCCACAAGTTCAGCGTGTCCGGCGAGGGCGAGGGCGATGCCACCTA
DNA 2: TAGGTGGCATCGCCCTCGCCCTCGCCGGACACGCTGAACTTGTGGCCG
How did the binding signal [12] turn out when B12 was run?
The binding signal was ~40 % GFP-negative cells (higher = more activity).

B13: eGFP site 10 (12 fingers) (dsDNA)
DNA 1: TGCCACCTACGGCAAGCTGACCCTGAAGTTCATCTGCACCACCGGCAA
DNA 2: TTGCCGGTGGTGCAGATGAACTTCAGGGTCAGCTTGCCGTAGGTGGCA
Which binding signal [13] does the source give for B13 here?
Its binding signal is ~78 % GFP-negative cells (higher = more activity).

B14: eGFP site 26 (12 fingers) (dsDNA)
DNA 1: CCGCGCCGAGGTGAAGTTCGAGGGCGACACCCTGGTGAACCGCATCGA
DNA 2: TCGATGCGGTTCACCAGGGTGTCGCCCTCGAACTTCACCTCGGCGCGG
How did the binding signal [14] turn out when B14 was run?
The binding signal was ~47 % GFP-negative cells (higher = more activity).

B15: eGFP site 20 (12 fingers) (dsDNA)
DNA 1: TCGAGCTGAAGGGCATCGACTTCAAGGAGGACGGCAACATCCTGGGGC
DNA 2: GCCCCAGGATGTTGCCGTCCTCCTTGAAGTCGATGCCCTTCAGCTCGA
B15 was tested. Which binding signal [15] did it give?
Its binding signal is ~42 % GFP-negative cells (higher = more activity).

B16: tetO (dsDNA)
DNA 1: GTCTCTATCACTGATAGGGAGA
DNA 2: TCTCCCTATCAGTGATAGAGAC
B16 was tested. Which binding signal [16] did it give?
Its binding signal is ~0.68 normalised eGFP fluorescence (lower = more activity, repressor).

What about the binding signal [17] of the same binder?
Its binding signal is ~0.51 normalised eGFP fluorescence (lower = more activity, repressor).

What about the binding signal [18] of the same binder?
Its binding signal is ~9500 mean GFP fluorescence (higher = more activity).

What about the binding signal [19] of the same binder?
The binding signal was ~15500 mean GFP fluorescence (higher = more activity).

B17: eGFP site 22 (12 fingers) (dsDNA)
DNA 1: CAAGTTCAGCGTGTCCGGCGAGGGCGAGGGCGATGCCACCTACGGCAA
DNA 2: TTGCCGTAGGTGGCATCGCCCTCGCCCTCGCCGGACACGCTGAACTTG
Which binding signal [20] does the source give for B17 here?
The binding signal was ~73 % GFP-negative cells (higher = more activity).
